pIC50, pKd: −log10 of the molar value.

The target in this test is trastuzumab. Description: fluorescence polarisation.

“Fc-III labeled with fluorescein (Fc-III-FAM) (peptide)” had a pKd of 7.85.
Fc-III peptide (wild-type Fc-III) had a pIC50 of 7.24.
Regarding NH2-PEG20-Fc-III (peptide), the negative logarithm of the IC50 (pIC50) was 7.04.

The values above are taken from paper PMC8985508.
